Assay: soluble on expression in E. coli; label from the status in PepcDB or PDB records

Row | Sequence | soluble on expression in E. coli
1 | MSLNREDRLVSAANSYLANNYECFLDDGVILTNNYSLLGTIKLGGIDFLTTSKKDLIELHASIYSVFRNFVTPEFKFYFHTVKKKIVIDETNRDYGLIFSNDFMRAYNEKQKRESFYDISFYLTIEQDLLDTLNEPVMNKKHFADNNFEEFQRIIRAKLENFKDRIELIEELLSKYHPTRLKEYTKDGIIYSKQCEFYNFLVGMNEAPFICNRKDLYLKEKMHGGVKEVYFANKHGKILNDDLSEKYFSAIEISEYAPKSQSDLFDKINALDSEFIFMHAYSPKNSQVLKDKLAFTSRRIIISGGSKEQGMTLGCLSELVGNGDITLGSYGNSLVLFADSFEKMKQSVKECVSSLNAKGFLANAATFSMENYFFAKHCSFITLPFIFDVTSNEGHHHHHH | soluble
2 | MGSCMKWDYGEMEDFSVSASGLFITNEGNFQYSNATLSYYDPATCEVENEVFYRANGFKLGDVAQSMVIRDGIGWIVVNNSHVIFAIDINTFKEVGRITGFTSPRYIHFLSDEKAYVTQIWDYRIFIINPKTYEITGYIECPDMDMESGSTEQMVQYGKYVYVNCWSYQNRILKIDTETDKVVDELTIGIQPTSLVMDKYNKMWTITDGGYEGSPYGYEAPSLYRIDAETFTVEKQFKFKLGDWPSEVQLNGTRDTLYWINNDIWRMPVEADRVPVRPFLEFRDTKYYGLTVNPNNGEVYVADAIDYQQQGIVYRYSPQGKLIDEFYVGIIPGAFCWKLEHHHHHH | not soluble
3 | MSFDKQNLIWIDLEMTGLDPEKERIIEIATIVTDKNLNILAEGPVLAVHQSDELLNKMNDWCQKTHSENGLIERIKASKLTERAAELQTLDFLKKWVPKGASPICGNSIAQDKRFLVKYMPDLADYFHYRHLDVSTLKELAARWKPEILEGFKKENTHLALDDIRESIKELAYYREHFMKLDLEHHHHHH | soluble
4 | MKTKYVVIIQCDMAKNRCSGMRCTNAFYEKTDAFENYAKDTKYISFTCGGCSGKVVSSKLANFSRWLKKYDCIKKDEVTIHLSSCMSTDNSHYDRCPNIDYIKQIINKKGYTNIVEGSIFSKKSEKLRDEGIYKKYQ | not soluble
5 | MGSDKIHHHHHHMLTVLLLAGAEKLINMAIASDEITKAGLVPLAGKVLRLNMGTPDVNLDVLFTQERLRFEPVTTESVFEQSGTMNERQKASLERGRLGHSRPDCIITVANPAQLLNLMRGTEGNLPIEGDYKVLMQLNQLVAGFDPDVAGQLEPFIGKPMASQLHLLISQLKGSWRHSAKRAFNDVSDWANDVAGNVTPDTSEAAEVNVLKQQLLKLRADVEREEARLAAIKDEQARLTNSR | not soluble
6 | MNSAHRSSLKKRPGPQDDRRVSFASPVSSSQKTAAVTVAAQTKQPAKAKNLRTMHSTPKKSKPAHDVADIISLVSKQSDILDDVSEIEHKMIKQAKMTQDLTMELANSIERIANMALAESKLSDQMEKQSKKLISLEGKTKELVEKANNWSKTLENRVDARSHHSTCLNDVQAAIKIINNAKINNDGFSEDFSAHYDKLLDLVETLEPWADKL | soluble
7 | MIGRLRGIIIEKQPPLVLIEVGGVGYEVHMPMTCFYELPEAGQEAIVFTHFVVREDAQLLYGFNNKQERTLFKELIKTNGVGPKLALAILSGMSAQQFVNAVEREEVGALVKLPGIGKKTAERLIVEMKDRFKGLHGDLFTPAADLVLTSPASPATDDAEQEAVAALVALGYKPQEASRMVSKIARPDASSETLIREALRAAL | soluble
8 | MPAFVDLEELLATRLLVQGNSGSGKSHLLRRLLEQSSSWVQHCVIDPEGDFVTLADKFGHVIVEAQRSEQELMRIAYRIRQHRVSVVLNLEGLDTEQQMRAVGTFLGALFDVERDYWYPMLVVVDEAQLFAPAVAGEVSDEARKISLSAMTNLMCRGRKRGLAGVIATQRLAKLAKNVAAEASNFLIGRTFLDIDMVRAADLLGMERRQAEMFRDLERGHFVALGPALSRRSLRIIIGSVETLARSSSPKLMPLPKERVDVKELVFTASQEEILIPFKQSREPVKEKSIHAILEKAVNKKRELLAENSSLFPELSVVDRDLQAECIIREILEDPEAFYRSTAVLYQDFLVRCRIHGLSGDFLNLSQFRRKLAIAQACVDKETAVSENWKRILYISESLEDDVQGVFLNVAQAALGGKPCPSDAFLARLYGTHSLSRARRLLTYFEERGLIVIHTHFSGQRIIAFPDLGVETAPGDPKEPI | not soluble
9 | HHHHHHGSAQLPSPTNGKKWEKVEQLSDEFDGNSIDTNKWYDYHPFWEGRAPSNFKKGDAFVSDGFLNLRSTLRKEPSSVQDPFKDIWVDAAAAVSKTKAQPGYYYEARFMASSLSMTSSFWFRVGQFSSIDVIEHIGDPSKENRQDDLPYQYHVNTHYYGKHAGLQPLGTEYKMPGRGRDNFYTYGFWWKSPNELLFYFNGKQVMRIVPRVPLDEELRMIFDTEVFPFATAGVANIGLPKPENLRDNSKNTMKVDWVRVYKLVDGTA | soluble
10 | MQFYRRLTAIKAISFDLDDTLYNNRPIMQSVEQQMAHYFTEKFAILLPELLVEPKQVFNRRFWAPYRQQAIKAHQDISHDVVRLRFESYRLGLLAHNLSAEAARKEAQAGLDYFINLRSDFTVPKESHELLASLSKAFPLVSISNGNVDTRALGIDHYFQHIYHAGFQTGNCHDESEHLLKQKPETDMFSLVCQQLDILPEQLLHVGDCGFADIHGALNAGCQTAWLPQYGVGKSLQQIPHIELSLVSDLSQLIRKA | not soluble
11 | MDERRTAEERRERMLPETMPVCPVRGSVIYPTMVMPIDAGRPISIRAIDEALARDRVLLIVSQRDKEVETPRPSDLFEVGTACNILKMRKNPDGSVQVLVQAFARVRVREWLDLGDHLEARGEVLADEPGEPILVKALVREVKDKFQALLKEGKYLAPEVAQFILNLEDPSQLADYVAFHMDFRLEDKQKVLETANVAERLRAVLVLLEAELALIETQRRIQQQVKEEIDRNQREYFLREQMKAIQRELHGEEGEQEVEEFRRKLEALDLPPVVRQEAERELNRFARMHPDSAEASVIRTYLDWIVNLPWNTRTEDNLDLERAKEILERDHYGLEKVKDRVLEYLAVRKLKAERAKRGEIPPDEVNKGPILLFVGPPGVGKTSIAKSIAEALGRKYVRVSLGGVRDESDIRGHRRTYIGAMPGRIIQGLRQAGTKNPVFLLDEVDKLGISYQGDPAAALLEVLDPAQNKEFVDHYLGVPFDLSEVMFICTANFPQNIPAPLYDRMEPIEFTSYTEQEKLEIAKRYLLPRQLKENGLEPEQVVVTEAALTRLITHYTREAGVRQLEREIGALLRKAARRILEEGKKRVRITEKDLEAYLGPPRFLPETEAREPQVGVATGMYYTPVGGDIMFVEVSVMPGKGNLILTGQLGDVMKESARAALSYAKKNALRFGIPLEKFDKSDIHIHVPAGAIPKEGPSAGVALVSALVSALTEVPVRHDIAMTGEITLTGRVLPIGGVKEKVLGARRAGIREVILPKLNEPDLSDIPKPLRQNMTFHFVEHLDQVLDLALVGGLKALEERGRRPRSARKKKELVAHA | soluble
12 | MERVVINVSGLRFETQMKTLAQFPETLLGDPEKRTQYFDPLRNEYFFDRNRPSFDAILYYYQSGGRLKRPVNVPFDIFTEEVKFYQLG | soluble
13 | MVMSKYTQEQIKNLVEGNLDWNTVLKMLSMPKDHERFQMYLKVLQDKVDFDDKIVLPLGPHLFVVQDAQKKWVIKCSCGHAFCAPEENWKLHANIYVRDTAEKMEEVYPKLLASDTHWQVYREYICPDCGILLDVEAPTPWYPVIHDFEPDIEVFYKDWLGIQPPERR | not soluble
14 | MGSDKIHHHHHHMENRIVKFKSKESAGLNLHAIPGHFATSHSHINYYVDVTSIKTRVSEAKEAAKALYTKVPHHSYIDTIVCMDGTEMIGAFLSQEIERNGLMSVNKHETIYVVSPEINNGQMLFRDNNKGAIDGKHVVLLLATTTTGETIRRAMECINYYGGMVTCIASIFSTIDEVNGVKIDKLFDDDDVVNYQTYPVTECPFCKKGLPIEAMVNGFGYSKL | not soluble
15 | MGSDKIHHHHHHMSTIIQNTLAPKVQNQLIHHLPALEQAELLSQAKLVQLNFADLLCQPGESYQYVYFPLTAFISLIAKLPKHPALEMGLIGYEGMLGATTLLSTRQVPSEAIIQGSGKAWRIPIATFEDLLAQSSSLRQILETYLYQLLCQLSQNAVCAHFHSVESRLARWLLMSHDRIQTNELFLTHQFLSDMLGVRRSSITEAAGELQASGCISYNRGRLYILDRQGLLARCCSCYHLMRT | not soluble
16 | MNDTLPGRISRERRGHLLLLGLDRVAKRNAFDLPMLDDLVAALGEYEADDQLRCALLFAHGEHFTAGLDLANVGETFRQGWKLPEGAVDPWGTFGGRRPSKPLVVAVQGYCYTIGIELMLAADINLCASNARFAQLEVQRGILPFGGATLRMHQVAGWGNAMRWLLTGDEFDAHEAYRLGLVQEVTAPEDLLDHAIALAERVAAQAPLGVRATLGSARQALLEGEAVAAAALPEAARRLLDSEDAKEG | not soluble
17 | MNNIRQLTKDEYPKAIELSWQVFTITGKEDFNNEGLEFFKSFIYNKKCINEIIFYGSFDNEALTGILGIKSNGKHISLFFIKPEYHRHGLGKKLFHYASTLHPSIETTVNSSTYAIPFYRSLGFAVVGEKQNYHGLCSTPMRRYHAVFVQKNKYTLRTWQTEDAHSLVQELNNKKIWDNCRNVFPHPYRLEHAETFIDLIQKKEGIHDFCIEVNGKAVGNIGFTPGTDVECFNAEVGYVIGEKYWNQGIVTDALQEAIYHYFTYTNTIRIFALVFEHNLPSMRVLEKAGFNKVGIMTKSIFKNGHFTNAHLFELLKNVLEHHHHHH | not soluble
18 | MGSDKIHHHHHHMTQKTLPPLNWLRAFEVSARYLNFTHAAEELHLTQGAVSQQIRHLESQLGVALFKRLPRGLGLTEEGQSYLPVVQDAISRLAVGTNEIFGQRQRRPLKVRGSLSFLHFWLAPRLADFRRSHPQVDIRYISNLWVKELDAEDDLEIRWGSGQWAGVEAQRLTRDMLVPVCAPALLAGCPLREPRDLARVPLLHVLGYEEGWGYWLERVGADQVDSSSGLQFDTLVSTLRMAELGLGVALARSSLVEDLLQEGRLVAPFAQRIEASESFFLVRGLGEALSPDAQAFSHWLVAMAHR | not soluble
19 | TVGCVAVDSHGNLASATSTGGLVNKMVGRIGDTPLIGAGTYANELCAVSATGKGEEIIRATVARDVAALMEFKGLSLKEAADFVIHERTPKGTVGLIAVSAAGEIAMPFNTTGMFRACATEDGYSEIAIWPTT | soluble
20 | MITPKGTHDAVAKFQKTDLHQDLDYIVLQQRRTQLETLINERESFVKNLCSLFHKIQNTKNYQEFVDVLAENRDLLREIFTVENGFQKQKWISNDDIPQIDWDKFALDINAYIAENDQLLALYEDGLL | not soluble
21 | MGSDKIHHHHHHMSEKNQQSADLMARQYFLHLGAHRTGSSSFQLCLHENRAALANAGYGVAFPARDGIRAGQLALRLPQPRHDAEAETRMAETARQHLTQDIAPAPDQKVLLSEENILGSMSHFQQALFYPASAKRLRALRQAMEGPAAAVLLVVRDYGPFFRSCIRKRMEETIVTDFEGAVSAYLAMDRGWLEVLREVRDILEPAKLIVARHEDRPKRVDLLRELAPDLAQVALMQPSTSLNISATDRALSALQARYATGEKLSRKAWRATLAEWRDDATPMGLTEFTPRELRAFSMRYERDLSDIAKEPGLTLI | not soluble

— the DeepSol protein solubility set
